Patent publication US20260201035A1 (published 2026)

Key:
Assay in all cases: fluorescence microscopy, LentiX cells co-expressing Lck (FIG. 38)
[1] = biological target: T1, GFP-tagged PD1, Y223/F248 PD1 (UniProt Q15116 25-288)
T1 construct: whole, on cells; In LentiX cells co-expressing Lck; not shown: GFP tag

[2] = biological target: T2, GFP-tagged PD1, wildtype PD1 (Y223/Y248) (UniProt Q15116 25-288, tyrosine phosphorylation by co-expressed Lck (implied, not measured in this experiment))
T2 construct: whole, on cells; In LentiX cells co-expressing Lck; not shown: GFP tag

[3] = biological target: T3, GFP-tagged PD1, F223/Y248 PD1 (UniProt Q15116 25-288)
T3 construct: whole, on cells; In LentiX cells co-expressing Lck; not shown: GFP tag

[4] = biological target: T4, GFP-tagged PD1, F223/F248 PD1 (UniProt Q15116 25-288)
T4 construct: whole, on cells; In LentiX cells co-expressing Lck; not shown: GFP tag

Measured: binding result

B1: mCherry-tagged Binder-NT7 (designed binder)
chain: ERFDSLTDLVEHYKKNPMVETLGTVLQLKQPLGGSGGGWFHGHLSGKEAEKLLTEKGKHGSFLVRESQSHPGDFVLSVRTGDDKGESNDGKSKVTHVMIRCQELKYDVGGGGGSQLQESGGGLVQAGGSLRLSCAASGYIFSRWYMGWYRQAPGKEREFVAGIDQGSITYYADSVKGRFTISRDNAKNTVYLQMNSLKPEDTAVYYCAAVAWAGYPWYYKHAYWGQGTQVTVSS
notes: Expressed in LentiX cells co-expressing Lck; not shown: mCherry tag
binds: all assays above
